The binders below were run against T1, (融合小鼠Fc的)CD47 (human, UniProt Q08722 19-139, limits assumed) (assay: SPR Biacore 8K, antibody on CM5 chip, CD47-mFc as analyte, 1:1 fit, 25 C).
T1 construct: also called CD47-mFC; not shown: mouse Fc
T1 sequence (Q08722 19-139 limits assumed): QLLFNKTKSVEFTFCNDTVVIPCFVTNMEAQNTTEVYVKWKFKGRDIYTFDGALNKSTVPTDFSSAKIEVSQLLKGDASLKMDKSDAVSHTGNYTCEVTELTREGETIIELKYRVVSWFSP

Binder | Kd [nM] | koff [s⁻¹] | kon [M⁻¹ s⁻¹]
嵌合抗体ID 3 (antibody, human IgG4 S228P, kappa, V domains shown) VH: QVQLQQPGAELVKPGAPVKLSCKASGYTFTSYWMNWVKQRPGRGLEWIGRIDSSDSETHYNQKFKDKATLTVDKSSSTAYIQLSSLTSEDSAVYYCARQGEGLRRSWFPYWGQGTLVIVSA VL: DIVLTQSPASLAVSLGQRATISCRASKSVSTSGYSYIHWYQQKPGQPPKLLIYVASNLQSGVPARFSGSGSGTDFTLNIHPVEEEDAATYYCQHIRELPWTFGGGTKLEIKR | 0.668 | 0.000265 | 397000
人源化抗体ID 5 (antibody, human IgG4 S228P, kappa, Humanized, human IgG4; also called VH1+VL2) heavy: not shown light: DIVMTQSPDSLAVSLGERATINCRASKSVSTSGYSYIHWYQQKPGQPPKLLIYVASNLQSGVPDRFSGSGSGTDFTLTISSVQAEDVAVYYCQHIRELPWTFGQGTKVEIKRTVAAPSVFIFPPSDEQLKSGTASVVCLLNNFYPREAKVQWKVDNALQSGNSQESVTEQDSKDSTYSLSSTLTLSKADYEKHKVYACEVTHQGLSSPVTKSFNRGEC | 0.623 | 0.000303 | 486000
人源化抗体ID 4 (antibody, human IgG4 S228P, kappa, V domains shown, Humanized, human IgG4; also called VH1+VL1) VH: QVQLVQSGAEVKKPGASVKVSCKASGYTFTSYWMNWVRQAPGQGLEWMGRIDSSDSETHYNQKFKDRVTMTRDTSTSTVYMELSSLRSEDTAVYYCARQGEGLRRSWFPYWGQGTLVTVSS VL: DIVMTQSPDSLAVSLGERATINCRASKSVSTSGYSYIHWYQQKPGQPPKLLIYVASNLQSGVPDRFSGSGSGTDFTLTISSLQAEDVAVYYCQHIRELPWTFGQGTKVEIKR | 0.79 | 0.00038 | 482000
人源化抗体ID 2 (antibody, human IgG4 S228P, kappa, Humanized, human IgG4 constant region and human light chain constant region, expressed in 293F cells; also called VH1+VL3) heavy: not shown light: DIVMTQSPDSLAVSLGERATINCRASKSVSTSGYSYIHWYQQKPGQPPKLLIYVASNLQSGVPDRFSGSGSGTDFTLTISSVQAEDVAVYYCQHIRELPWTFGQGTKLEIKRTVAAPSVFIFPPSDEQLKSGTASVVCLLNNFYPREAKVQWKVDNALQSGNSQESVTEQDSKDSTYSLSSTLTLSKADYEKHKVYACEVTHQGLSSPVTKSFNRGEC | 0.623 | 0.000283 | 454000

From patent CN116478288A (ZHEJIANG BLUE SHIELD PHARMA CO LTD, dated 2023)
